B1: ^316ATPF^319AVPI: modified iCasp9, ATPF replaced by SMAC/Diablo AVPI (protein, UniProt P55211 1-416, looked up, variant T317V F319I)
chain: MDEADRRLLRRCRLRLVEELQVDQLWDALLSRELFRPHMIEDIQRAGSGSRRDQARQLIIDLETRGSQALPLFISCLEDTGQDMLASFLRTNRQAAKLSKPTLENLTPVVLRPEIRKPEVLRPETPRPVDIGSGGFGDVGALESLRGNADLAYILSMEPCGHCLIINNVNFCRESGLRTRTGSNIDCEKLRRRFSSLHFMVEVKGDLTAKKMVLALLELAQQDHGALDCCVVVILSHGCQASHLQFPGAVYGTDGCPVSVEKIVNIFNGTSCPSLGGKPKLFFIQACGGEQKDHGFEVASTSPEDESPGSNPEPDAVPIQEGLRTFDQLDAISSLPTPSDIFVSYSTFPGFVSWRDPKSGSWYVETLDDIFEQWAHSEDLQSLLLRVANAVSVKGIYKQMPGCFNFLRKKLFFKTS
modifications: FKBP12-F36V fusion (iCasp9), CARD deleted
B2: D330A-S183A: modified iCasp9 double mutant (protein, UniProt P55211 1-416, looked up, variant D330A S183A)
chain: B1 chain with S183A, V317T, I319F, D330A
modifications: FKBP12-F36V fusion (iCasp9), CARD deleted
notes: modified iCasp9 double mutant
B3: F319A: modified iCasp9, F319A (protein, UniProt P55211 1-416, looked up, variant F319A)
chain: B1 chain with V317T, I319A
modifications: FKBP12-F36V fusion (iCasp9), CARD deleted
B4: N405Q-S144D: modified iCasp9 double mutant (protein, UniProt P55211 1-416, looked up, variant N405Q S144D)
chain: B1 chain with S144D, V317T, I319F, N405Q
modifications: FKBP12-F36V fusion (iCasp9), CARD deleted
notes: modified iCasp9 double mutant
B5: T317C: modified iCasp9, T317C (protein)
chain: VDGFGDVGALESLRGNADLAYILSMEPCGHCLIINNVNFCRESGLRTRTGSNIDCEKLRRRFSSLHFMVEVKGDLTAKKMVLALLELARQDHGALDCCVVVILSHGCQASHLQFPGAVYGTDGCPVSVEKIVNIFNGTSCPSLGGKPKLFFIQACGGEQKDHGFEVASTSPEDESPGSNPEPDACPFQEGLRTFDQLDAISSLPTPSDIFVSYSTFPGFVSWRDPKSGSWYVETLDDIFEQWAHSEDLQSLLLRVANAVSVKGIYKQMPGCFNFLRKKLFFKTSASRA
B6: L329E: modified iCasp9, L329E (protein)
chain: B5 chain with C185T, L197E
B7: D330A-S144A: modified iCasp9 double mutant (protein)
chain: B5 chain with S12A, C185T, D198A
B8: D330N: modified iCasp9, D330N (protein)
chain: B5 chain with C185T, D198N
B9: D330S: modified iCasp9, D330S (protein)
chain: B5 chain with C185T, D198S
B10: D330A-S144D: modified iCasp9 double mutant (protein)
chain: B5 chain with S12D, C185T, D198A
B11: A316G: modified iCasp9, A316G (protein)
chain: B5 chain with A184G, C185T
B12: S196A: modified iCasp9, S196A (protein)
chain: B5 chain with S64A, C185T
B13: T317A: modified iCasp9, T317A (protein)
chain: B5 chain with C185A
B14: D330G: modified iCasp9, D330G (protein)
chain: B5 chain with C185T, D198G
B15: D330V: modified iCasp9, D330V (protein)
chain: B5 chain with C185T, D198V
B16: D330A-S196A: modified iCasp9 double mutant (protein)
chain: B5 chain with S64A, C185T, D198A
B17: S183A: modified iCasp9, S183A (protein)
chain: B5 chain with S51A, C185T
B18: D330E: modified iCasp9, D330E (protein)
chain: B5 chain with C185T, D198E
B19: N405Q-S144A: modified iCasp9 double mutant (protein)
chain: B5 chain with S12A, C185T, N273Q

This note sets out measurements from US20230065562A1, “DUAL CONTROLS FOR THERAPEUTIC CELL ACTIVATION OR ELIMINATION” (Bellicum Pharmaceuticals, Inc., priority 2015, published 2023).

Substitutions are numbered along the chain they refer to. Numbers in names are those of the source. Entries after “also recorded” stand apart in the source; their conditions may differ.

The test system of the test is HEK293T/16 cells. The test can be described thus: Secreted alkaline phosphatase (SEAP)-based surrogate killing assay of iCasp9 mutants. It is filed as cell-based, human. The conditions noted are these: SEAP assay without AP1903. As to the method:
Early passage HEK293T/16 cells (ATCC, Manassas, Va.) were maintained in IMDM, GlutaMAX™ (Life Technologies, Carlsbad, Calif.) supplemented with 10% FBS, 100 U/mL penicillin, and 100 […] until transfection in a humidified, 37° C., 5% CO2/95% air atmosphere. Cells in logarithmic-phase growth were transiently transfected with 800 ng to 2 μg of expression plasmid encoding iCasp9 mutants and 500 ng of an expression plasmid encoding SRα promoter driven SEAP per million cells in 15-mL conical tubes. […] GeneJammer® Transfection Reagent at a ratio of 3 μl per ug of plasmid DNA was used to transiently transfect HEK293T/16 cells in the absence of antibiotics. 100 μl or 2 mL of the transfection mixture was added to each well in 96-well or 6-well plate, respectively.
Briefly, after 65° C. heat denaturation for 45 minutes to reduce background caused by endogenous (and serum-derived) alkaline phosphatases that are sensitive to heat, 5 μl of supernatants was added to 95 μl of PBS and added to 100 μl of substrate buffer, containing 1 μl of 100 mM 4-methylumbelliferyl phosphate (4-MUP; Sigma, St. Louis, Mo.) re-suspended in 2 M diethanolamine. Hydrolysis of 4-MUP by SEAP produces a fluorescent […] with excitation/emission (355/460 nm), which can be easily measured. Assays were performed in black opaque 96-well plates to minimize fluorescence leakage between wells. […] of the mixture was seeded onto each well of a 96-well plate. […] For the assay, 4-methylumbelliferyl phosphate substrate was hydrolyzed by SEAP to 4-methylumbelliferon, a metabolite that can be excited with 364 nm and detected with an emission filter of 448 nm. Since SEAP is used as a marker for cell viability, reduced SEAP reading corresponds with increased iCaspase-9 activities.
Take B1: the “Basal Activity (relative to wild type/unmodified Caspase-9)” value is “no effect”.
To B2 belongs “Decreased”; to B3, “no effect”.
For B4 the value was “Decreased”; for B5, “no effect”; for B6, “Decreased”.
For B7 the value was “Decreased”; for B8, “less basal activity than wild type Caspase-9; also recorded: Decreased”.
Consider B9, for which the “Basal Activity (relative to wild type/unmodified Caspase-9)” value is listed as “less basal activity than wild type Caspase-9; also recorded: Decreased”.
With B10, the “Basal Activity (relative to wild type/unmodified Caspase-9)” value is “Decreased”.
To B11 belongs “lower basal activity; also recorded: Decreased”; to B12, “Decreased”.
For B13 the value was “lower basal activity; also recorded: reduce basal activity; also recorded: Decreased”.
For B14 the value was “less basal activity than wild type Caspase-9; also recorded: Decreased”; for B15, “less basal activity than wild type Caspase-9; also recorded: Decreased”.
B16: the “Basal Activity (relative to wild type/unmodified Caspase-9)” value is on record as “Decreased”.
Take B17: the “Basal Activity (relative to wild type/unmodified Caspase-9)” value is “Decreased”.
For the molecule B18, the “Basal Activity (relative to wild type/unmodified Caspase-9)” value is “less basal activity than wild type Caspase-9; also recorded: Decreased”.
On to B19, for which the “Basal Activity (relative to wild type/unmodified Caspase-9)” value is reported as “Decreased”.
